In experiment [1] the target is T1, CTLA-4-Ig(G4) (UniProt P16410 37-161, limits assumed).
T1 construct: Bought (Repligen, Inc.); not shown: IgG4 portion of the bought fusion protein
Put plainly: competition ELISA: CTLA-4-Ig(G4) to coated B7.2-Ig(G1); n = 3.

The target in experiment [2] is T2, CTLA-4-IgG1 fusion protein (human).
T2 construct: Mature extracellular domain of human CTLA-4 fused to human IgG1 constant domains, no hinge, covalent dimer through cysteine 120; The oncostatin M signal peptide is cleaved; also called OM-CTLA4-IgG1 Fusion Protein; CTLA-4-Ig fusion protein
T2 sequence (chain, as listed by the source): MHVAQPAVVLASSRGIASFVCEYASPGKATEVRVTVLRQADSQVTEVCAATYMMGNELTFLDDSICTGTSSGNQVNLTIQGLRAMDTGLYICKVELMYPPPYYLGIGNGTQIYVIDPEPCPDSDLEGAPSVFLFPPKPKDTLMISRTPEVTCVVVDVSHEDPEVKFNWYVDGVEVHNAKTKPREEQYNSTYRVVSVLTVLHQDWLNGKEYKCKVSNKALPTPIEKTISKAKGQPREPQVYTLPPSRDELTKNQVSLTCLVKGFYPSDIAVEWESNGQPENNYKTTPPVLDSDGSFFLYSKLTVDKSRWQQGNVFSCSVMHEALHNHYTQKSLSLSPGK
Kind of experiment: BIAcore; CTLA-4-Ig on chip, 457.2 RU. Background: SPR reads the build-up and loss of mass on a sensor chip optically.

The target in experiment [3] is T1, CTLA-4-Ig(G4). Kind of experiment: competition ELISA: CTLA-4-Ig(G4) to coated B7.1-Ig(G1); n = 2. A general note: ELISA stands for enzyme-linked immunosorbent assay.
The target in experiment [4] is T2, CTLA-4-IgG1 fusion protein. Put plainly: BIAcore; CTLA-4-Ig on chip, 878.7 RU.
The target of experiment [5] is T2, CTLA-4-IgG1 fusion protein. Kind of experiment: BIAcore; CTLA-4-Ig on chip, 504.5 RU.
For experiment [6], the target named is T2, CTLA-4-IgG1 fusion protein. Kind of experiment: BIAcore; CTLA-4-Ig on chip, 397.8 RU.
The target in experiment [7] is T2, CTLA-4-IgG1 fusion protein. Kind of experiment: selectivity ELISA, antibody 1 µg/ml; CTLA-4/Ig over CD28/Ig; n = 3.
Experiment [8] deals with T2, CTLA-4-IgG1 fusion protein. Kind of experiment: selectivity ELISA, antibody 1 µg/ml; CTLA-4/Ig over B7.2/Ig; n = 3.
The target in experiment [9] is T3, CTLA-4-Ig(G1) (UniProt P16410 37-161, limits assumed).
T3 construct: also called CTLA4 (IGEN assay); not shown: IgG1 portion
T3 sequence (P16410 37-161 limits assumed): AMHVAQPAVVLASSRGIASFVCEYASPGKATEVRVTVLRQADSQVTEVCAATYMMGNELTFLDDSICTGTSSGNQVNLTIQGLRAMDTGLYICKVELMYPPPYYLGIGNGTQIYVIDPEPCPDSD
Kind of experiment: IGEN ECL bead assay, antibody 1 µg/ml; CTLA-4-Ig(G1) over CD28-Ig(G1); n = 2.

Experiment [10] concerns the target T2, CTLA-4-IgG1 fusion protein. Kind of experiment: selectivity ELISA, antibody 1 µg/ml; CTLA-4/Ig over CD44/Ig; n = 3.

Broadly, the IC50 is the concentration at which inhibition is half-maximal. Higher therefore signals weaker potency in that assay. One may read the Kd as the free concentration of one partner at which half of the binding sites on the other are occupied at equilibrium, for simple one-to-one binding. In general, koff refers to the first-order rate constant of dissociation. Lower therefore signals a long-lived complex. The term kon denotes the rate constant with which the complex forms. The low end stands for slow association, the high end for fast association.

T1 sequence (P16410 37-161 limits assumed): as above

B1: 4.10.2 (antibody, human IgG2, V domains shown)
VH: GVVQPGRSLRLSCVASGFIFSSHGIHWVRQAPGKGLEWVAVIWYDGRNKDYADSVKGRFTISRDNSKNTLYLQMNSLRAEDTAVYYCARVAPLGPLDYWGQGTLVTVSS
VL: SPGTLSLSPGERATLSCRASQSISSNFLAWYQQKPGQAPRLLIYRPSSRATGIPDSFSGSGSGTDFTLTISRLEPEDFALYYCQQYGTSPFTFGPGTKVDIKR
notes: Fully human IgG2 kappa (hybridoma); also called CT-4.10.2
With B1, the values for the IC50 in [1] and in experiment [3] were 1.5 nM and 3.39 nM, respectively. Besides, the figures for the Ka in [2], in [4] and in [5] were 1.4e+09 M⁻¹, 3.9e+09 M⁻¹ and 2.2e+09 M⁻¹, respectively. Besides, the Kd in experiment [2] came to 0.721 nM; in experiment [4], 0.254 nM; in experiment [5], 0.455 nM. The values for the koff in experiment [2], in experiment [4] and in experiment [5] were 0.000505 s⁻¹, 0.000253 s⁻¹ and 0.00043 s⁻¹, respectively. In addition, the kon in experiment [2] came to 700000 M⁻¹ s⁻¹; in [4], 1e+06 M⁻¹ s⁻¹; in experiment [5] it was 940000 M⁻¹ s⁻¹.

B2: 2.1.3 (antibody, human IgG4, V domains shown)
VH: SGPGLVKPSQILSLTCTVSGGSISSGGHYWSWIRQHPGKGLEWIGYIYYIGNTYYNPSLKSRVTISVDTSKNQFSLKLSSVTAADTAVYYCARDSGDYYGIDVWGQGTTVTVSS
VL: SPDFQSVTPKEKVTITCRASQSIGSSLHWYQQKPDQSPKLLIKYASQSFSGVPSRFSGSGSGTDFTLTINSLEAEDAATYYCHQSSSLPLTFGGGTKVEIKR
With B2, in experiment [6], the Ka stood at 9e+08 M⁻¹, binding was put at a Kd of 1.17 nM, the koff came out at 0.0013 s⁻¹ and the kon was found to be 1.11e+06 M⁻¹ s⁻¹. Moreover, in [4], the Ka is 1.3e+09 M⁻¹, the Kd was 0.772 nM, the koff is 0.000959 s⁻¹ and the kon turned out to be 1.24e+06 M⁻¹ s⁻¹. For the same molecule, in experiment [5], the Ka came to 9e+08 M⁻¹, the Kd came to 1.12 nM, the koff was 0.00131 s⁻¹ and the kon was determined as 1.17e+06 M⁻¹ s⁻¹.

B3: 3.1.1 (antibody, V domains shown)
VH: GVVQPGRSLRLSCAASGFTFSSYGMHWVRQAPGKGLEWVAVIWYDGSNKYYADSVKGRFTISRDNSKNTLYLQMNSLRAEDTAVYYCARGARIITPCMDVWGQGTTVTVSS
VL: QSPSSLSASVGDRVTITCRASQSINTYLIWYQQKPGKAPNFLISATSILQSGVPSRFRGSGSGTNFTLTINSLHPEDFATYYCQQSYSTPFTFGPGTKVDIKR
notes: also called CT-3.1.1
Take B3: the IC50 worked out at 0.45 nM in [1] and 0.63 nM in experiment [3]. In addition, the “selectivity ratio CTLA4/CD28” value in experiment [7] and in experiment [9] was > 500 :1 each time. For the same molecule, in [8], the “selectivity ratio CTLA4/B7.2” value is > 500 :1. Moreover, the Ka in [6] stood at 4.4e+09 M⁻¹; in experiment [2], 4.4e+09 M⁻¹; in [4], 1.07e+10 M⁻¹; in experiment [5], 5.5e+09 M⁻¹. Further, the Kd in experiment [6] came to 0.228 nM; in experiment [2], 0.227 nM; in experiment [4], 0.093 nM; in experiment [5], 0.182 nM. Moreover, the koff in experiment [6] was 0.000207 s⁻¹; in experiment [2], 0.000165 s⁻¹; in [4] it was 9.6e-05 s⁻¹; in [5], 0.000172 s⁻¹. Moreover, the kon in experiment [6] turned out to be 910000 M⁻¹ s⁻¹; in experiment [2] it was 730000 M⁻¹ s⁻¹; in experiment [4], 1.04e+06 M⁻¹ s⁻¹; in experiment [5], 950000 M⁻¹ s⁻¹. In experiment [10], the “selectivity ratio CTLA4/CD44” value is > 500 :1.

The record behind these values is patent US6682736.
